# Measured values published in patent publication US12121566B2, “Methods for treating gout” (Horizon Therapeutics USA, Inc., priority 2019, dated 2024).
# What was measured:
# [1] = KXX exposure (AUC) by patient weight and age; type: in vivo, human
# Description: In some embodiments, heavier and/or younger patients may have a higher incidence of anti-KXX antibodies, or may have higher anti-KXX drug titers, than lighter and/or older patients. In other embodiments, lighter and/or older patients may have higher drug loading of KXX than heavier and/or younger patients. In some embodiments, lighter patients may have higher exposures of KXX than heavier patients. For example, in some embodiments, lighter patients may have greater than 2-fold exposure to KXX than heavier patients. In some embodiments, lower drug levels in a patient may result in anti-KXX antibodies. […] In other embodiments, older patients may have higher exposures of KXX than younger patients. For example, in some embodiments, older patients may have greater than 2-fold exposure to KXX than younger patients. […] Thus, in some embodiments, additional 8-mg doses of KXX may be beneficial for younger and/or heavier patients. In other embodiments, younger and/or heavier patients may benefit from one or more loading doses of 16 mg of KXX.
# dogs = test: Animal toxicology in dogs (IV); type: in vivo, dog; details: for vacuoles in the spleen, adrenal glands, and heart after recovery: 1-year recovery period; for vacuoles in the liver, duodenum, and jejunum after recovery: 3-month recovery period
# Description: Organs with cytoplasmic vacuoles included the spleen, adrenal gland, liver, heart, duodenum, and jejunum. Vacuoles in the spleen, adrenal glands, and heart persisted after a 1-year recovery period at pegloticase dose (≥1.5 mg/kg in dogs) approximately 5 times the MRHD, but were absent at a dose similar to the MRHD. Vacuoles in the liver, duodenum, and jejunum persisted after a 3-month recovery period at a pegloticase dose (10 mg/kg in dogs) approximately 30 times the MRHD, but were absent at doses less than or equal to 1.5 mg/kg approximately 5 times and similar to the MRHD. The edema and histiocyte infiltration in the aortic outflow tract was absent after recovery periods of 6 and 12 months, respectively.
# Vacuoles in the spleen, liver, duodenum, and jejunum were within macrophages and most likely represented phagocytic removal of pegloticase from the circulation. […] In the aortic outflow tract of the heart, vacuoles were in the cytoplasm of endothelial cells in the intimal lining of the aorta. In the adrenal gland, vacuoles were located within cortical cells in the Zona reticularis and Zona fasciculata. The clinical significance of these findings and the functional consequences are unknown.
# rabbits = test: Reproductive toxicity in rabbits; type: in vivo, rabbit
# rats = test: Reproductive toxicity and fertility in rats; type: in vivo, rat
# Description: The genotoxic potential of pegloticase has not been evaluated.
substance,measurement,setting,value
pegloticase,mean area under the curve (AUC),[1]; heavier patients,about 4.04 mg/L
same,"exposure to KXX, lighter versus heavier patients","[1]; human, in vivo",greater than 2 fold
same,"exposure to KXX, older versus younger patients","[1]; human, in vivo",greater than 2 fold
same,mean area under the curve (AUC),[1]; lighter patients,about 8.92 mg/L
same,mean area AUC,[1]; older patients,about 8.86 mg/L
same,mean area AUC,[1]; younger patients,about 3.93 mg/L
same,"vacuoles in the spleen, adrenal glands, and heart after recovery",dogs; dose similar to the MRHD,absent
same,"vacuoles in the spleen, adrenal glands, and heart after recovery","dogs; ≥1.5 mg/kg, approximately 5 times the MRHD",persisted
same,"vacuoles in the liver, duodenum, and jejunum after recovery","dogs; 10 mg/kg, approximately 30 times the MRHD",persisted
same,"vacuoles in the liver, duodenum, and jejunum after recovery",dogs; doses less than or equal to 1.5 mg/kg,absent
same,organ findings,"dogs; IV doses of ≥0.4 mg/kg, similar to and higher than the MRHD","caused cytoplasmic vacuoles in multiple organs, and edema and histiocyte infiltration in the aortic outflow tract"
same,edema and histiocyte infiltration in the aortic outflow tract after recovery,"dogs; recovery periods of 6 and 12 months, respectively",absent
same,mean fetal body weights,"rabbits; approximately 25 times the MRHD, maternal doses up to 10 mg/kg twice weekly",No effects
same,mean fetal and pup body weights,"rabbits; approximately 75 times the MRHD, maternal doses up to 30 mg/kg every other day",Statistically significant decreases
same,teratogenicity,"rabbits; approximately 75 times the MRHD, maternal doses up to 30 mg/kg twice weekly",not teratogenic
same,mean fetal body weights,"rats; approximately 10 times the MRHD, maternal doses up to 10 mg/kg twice weekly",No effects
same,mean fetal and pup body weights,"rats; approximately 50 times the MRHD, maternal doses up to 40 mg/kg every other day",Statistically significant decreases
same,teratogenicity,"rats; approximately 50 times the MRHD, maternal doses up to 40 mg/kg twice weekly",not teratogenic
same,impairment on fertility,rats; doses up to 40 mg/kg every other day (approximately 50 times the MRHD),no evidence of impairment
